According to article PMC4227786:

How the values were obtained:
14-3-3σ = 14-3-3σ (UniProt P31947); assay: co-immunoprecipitation; conditions: reference: wild type hnRNPA1; sites S4,S6
14-3-3θ = 14-3-3θ (UniProt P27348); assay: co-immunoprecipitation; conditions: reference: wild type hnRNPA1; sites S4,S6

## hnRNPA1 (from UniProt P09651) S4AS6A
14-3-3σ
  binding against the reference: lost
14-3-3θ
  binding against the reference: lost
